Literature values in PMC7106946.

Biological target: Asp46 (UniProt position 303, VILFMDRNLEQ)
Test: NMR

In the case of “Hedgehog protein autoprocessing domain (HhC) Hint domain, wild type at position 46 (Drosophila melanogaster)”, the pKa is given as 5.8.
